Literature values as cited in paper PMC12206923.

Target: dimeric IL-2 receptor (Homo sapiens) (UniProt P14784)
Sequence of UniProt P14784 (P14784 27-240, chain 1 of 2): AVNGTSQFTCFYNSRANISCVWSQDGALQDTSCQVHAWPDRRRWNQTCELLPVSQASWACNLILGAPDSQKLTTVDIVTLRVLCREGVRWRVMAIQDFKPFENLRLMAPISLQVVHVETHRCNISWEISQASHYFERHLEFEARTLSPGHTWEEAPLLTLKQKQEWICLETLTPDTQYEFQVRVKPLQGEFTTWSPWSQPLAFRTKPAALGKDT
Sequence of UniProt P14784 (P31785 23-262, chain 2 of 2, further chain): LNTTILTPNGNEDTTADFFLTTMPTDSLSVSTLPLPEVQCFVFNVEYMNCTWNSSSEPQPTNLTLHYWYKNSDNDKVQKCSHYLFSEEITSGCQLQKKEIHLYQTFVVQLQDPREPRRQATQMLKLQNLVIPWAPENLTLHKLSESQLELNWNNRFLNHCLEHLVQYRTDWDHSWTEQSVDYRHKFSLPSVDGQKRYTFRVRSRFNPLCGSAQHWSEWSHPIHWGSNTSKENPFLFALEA

Sequence of IL-2 (P60568 21-153): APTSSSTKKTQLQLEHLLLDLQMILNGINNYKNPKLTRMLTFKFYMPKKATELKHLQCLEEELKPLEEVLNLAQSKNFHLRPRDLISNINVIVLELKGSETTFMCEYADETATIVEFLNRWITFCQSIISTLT

Kd: 1 nM
Substance: IL-2 (from UniProt P60568)
